In patent US20150037868:

What was measured:
[1] = test system: Pgi with HRV 3C recognition sequence inserted after amino acid 108
[2] = test system: Pgi with HRV 3C recognition sequence inserted after amino acid 109
[3] = test system: Pgi with HRV 3C recognition sequence inserted after amino acid 110
[4] = test system: Pgi with HRV 3C recognition sequence inserted after amino acid 138
[5] = test system: Pgi with HRV 3C recognition sequence inserted after amino acid 410
[6] = test system: Pgi with HRV 3C recognition sequence inserted after amino acid 527
[7] = test system: Pgi with HRV 3C recognition sequence inserted after amino acid 528
[8] = test system: Pgi with HRV 3C recognition sequence inserted after amino acid 529
[9] = test system: Pgi with HRV 3C recognition sequence inserted after amino acid 530
[10] = test system: Pgi with HRV 3C recognition sequence inserted after amino acid 531
[11] = test system: Pgi with HRV 3C recognition sequence inserted after amino acid 532
[12] = test system: Pgi-HRV-I526 (Pgi with HRV 3C recognition sequence inserted after amino acid 526)
[13] = test system: Pta variant with HRV protease cleavage motif inserted after amino acid 381
[14] = test system: Pta variant with HRV protease cleavage motif inserted after amino acid 382
[15] = test system: Pta variant with HRV protease cleavage motif inserted after amino acid 387
[16] = test system: Pta variant with HRV protease cleavage motif inserted after amino acid 409
[17] = test system: wild-type Pgi protein (phosphoglucose isomerase of Escherichia coli)

Substance: exogenous HRV 3C protease (ACCELAGEN H0101S)
- Pgi Activity/Activity wild type, +protease; -protease value 0.94 [1]: 0.86
- Pgi activity in clarified lysate, +protease (10 units exogenous HRV 3C protease, 4 h, 37 C); -protease value 2.16 (µmol/min/mg total protein) [1]: 2.03
- Pgi Activity/Activity wild type, +protease; -protease value 1.10 [2]: 0.78
- Pgi activity in clarified lysate, +protease (10 units exogenous HRV 3C protease, 4 h, 37 C); -protease value 2.54 (µmol/min/mg total protein) [2]: 1.86
- Pgi Activity/Activity wild type, +protease; -protease value 0.92 [3]: 0.84
- Pgi activity in clarified lysate, +protease (10 units exogenous HRV 3C protease, 4 h, 37 C); -protease value 2.13 (µmol/min/mg total protein) [3]: 1.99
- Pgi Activity/Activity wild type, +protease; -protease value 0.27 [4]: 0.16
- Pgi activity in clarified lysate, +protease (10 units exogenous HRV 3C protease, 4 h, 37 C); -protease value 0.62 (µmol/min/mg total protein) [4]: 0.37
- Pgi Activity/Activity wild type, +protease; -protease value 0.50 [5]: 0.41
- Pgi activity in clarified lysate, +protease (10 units exogenous HRV 3C protease, 4 h, 37 C); -protease value 1.16 (µmol/min/mg total protein) [5]: 0.96
- Pgi Activity/Activity wild type, +protease; -protease value 0.84 [6]: 0.6
- Pgi activity in clarified lysate, +protease (10 units exogenous HRV 3C protease, 4 h, 37 C); -protease value 1.93 (µmol/min/mg total protein) [6]: 1.42
- Pgi Activity/Activity wild type, +protease; -protease value 0.45 [7]: 0.26
- Pgi activity in clarified lysate, +protease (10 units exogenous HRV 3C protease, 4 h, 37 C); -protease value 1.04 (µmol/min/mg total protein) [7]: 0.63
- Pgi Activity/Activity wild type, +protease; -protease value 0.64 [8]: 0.5
- Pgi activity in clarified lysate, +protease (10 units exogenous HRV 3C protease, 4 h, 37 C); -protease value 1.48 (µmol/min/mg total protein) [8]: 1.19
- Pgi Activity/Activity wild type, +protease; -protease value 0.33 [9]: 0.12
- Pgi activity in clarified lysate, +protease (10 units exogenous HRV 3C protease, 4 h, 37 C); -protease value 0.77 (µmol/min/mg total protein) [9]: 0.29
- Pgi Activity/Activity wild type, +protease; -protease value 0.56 [10]: 0.28
- Pgi activity in clarified lysate, +protease (10 units exogenous HRV 3C protease, 4 h, 37 C); -protease value 1.29 (µmol/min/mg total protein) [10]: 0.67
- Pgi Activity/Activity wild type, +protease; -protease value 0.50 [11]: 0.22
- Pgi activity in clarified lysate, +protease (10 units exogenous HRV 3C protease, 4 h, 37 C); -protease value 1.15 (µmol/min/mg total protein) [11]: 0.52
- Pgi Activity/Activity wild type, +protease; -protease value 0.83 [12]: 0.19
- Pgi activity in clarified lysate, +protease (10 units exogenous HRV 3C protease, 4 h, 37 C); -protease value 1.92 (µmol/min/mg total protein) [12]: 0.44
- in vitro Pta activity with or without exogenously supplied HRV protease, 30 minutes at 37 C [13]: In all cases, Pta activity was dramatically reduced upon incubation with HRV protease.
- in vitro Pta activity with or without exogenously supplied HRV protease, 30 minutes at 37 C [14]: In all cases, Pta activity was dramatically reduced upon incubation with HRV protease.
- in vitro Pta activity with or without exogenously supplied HRV protease, 30 minutes at 37 C [15]: In all cases, Pta activity was dramatically reduced upon incubation with HRV protease.
- in vitro Pta activity with or without exogenously supplied HRV protease, 30 minutes at 37 C [16]: In all cases, Pta activity was dramatically reduced upon incubation with HRV protease.
- Pgi Activity/Activity wild type, +protease; -protease value 1 [17]: 1
- Pgi activity in clarified lysate, +protease (10 units exogenous HRV 3C protease, 4 h, 37 C); -protease value 2.31 (µmol/min/mg total protein) [17]: 2.37
